Test results reported in patent publication US10087225B2, “Formulation of MK2 inhibitor peptides” (MOERAE MATRIX, INC., priority 2015, dated 2018).

Experiments:
Ab1(H396P)(h) = Ab1(H396P)(h) (Homo sapiens, UniProt P00519, H396P); test: Kinase Profiling Assay; assay type: biochemical; conditions: 100 μM
Ab1(M351T)(h) = Ab1(M351T)(h) (Homo sapiens, UniProt P00519, M351T); test: Kinase Profiling Assay; assay type: biochemical; conditions: 100 μM
Aurora-A(h) = molecular target: T1, Aurora-A(h) (Homo sapiens, UniProt O14965); test: Kinase Profiling Assay; assay type: biochemical; conditions: 100 μM
T1 sequence (O14965 1-403): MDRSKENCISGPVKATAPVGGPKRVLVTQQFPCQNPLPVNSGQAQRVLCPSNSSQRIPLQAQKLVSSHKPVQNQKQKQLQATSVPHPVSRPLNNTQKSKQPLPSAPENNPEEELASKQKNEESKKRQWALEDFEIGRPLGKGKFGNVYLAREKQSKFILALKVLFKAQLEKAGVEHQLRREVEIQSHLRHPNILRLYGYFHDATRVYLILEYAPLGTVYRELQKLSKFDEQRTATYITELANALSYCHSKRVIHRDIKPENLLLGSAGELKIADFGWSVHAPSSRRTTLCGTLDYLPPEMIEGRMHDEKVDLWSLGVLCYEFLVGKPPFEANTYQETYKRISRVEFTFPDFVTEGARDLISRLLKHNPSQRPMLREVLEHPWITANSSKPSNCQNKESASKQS

CDK1/cyclinB(h) = CDK1/cyclinB(h) (Homo sapiens, UniProt P06493); test: Kinase Profiling Assay; assay type: biochemical; conditions: 100 μM
Sequence of CDK1/cyclinB(h) (P06493 whole entry): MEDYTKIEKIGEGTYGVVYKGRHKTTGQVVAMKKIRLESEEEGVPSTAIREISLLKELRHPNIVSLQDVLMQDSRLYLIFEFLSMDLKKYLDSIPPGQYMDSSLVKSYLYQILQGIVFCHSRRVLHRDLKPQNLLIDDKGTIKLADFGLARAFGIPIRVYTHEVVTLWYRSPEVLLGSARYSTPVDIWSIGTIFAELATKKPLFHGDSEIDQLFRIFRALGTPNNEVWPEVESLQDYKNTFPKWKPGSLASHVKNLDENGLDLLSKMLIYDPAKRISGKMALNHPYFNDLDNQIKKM
Sequence of CDK1/cyclinB(h) (P14635 whole entry partner): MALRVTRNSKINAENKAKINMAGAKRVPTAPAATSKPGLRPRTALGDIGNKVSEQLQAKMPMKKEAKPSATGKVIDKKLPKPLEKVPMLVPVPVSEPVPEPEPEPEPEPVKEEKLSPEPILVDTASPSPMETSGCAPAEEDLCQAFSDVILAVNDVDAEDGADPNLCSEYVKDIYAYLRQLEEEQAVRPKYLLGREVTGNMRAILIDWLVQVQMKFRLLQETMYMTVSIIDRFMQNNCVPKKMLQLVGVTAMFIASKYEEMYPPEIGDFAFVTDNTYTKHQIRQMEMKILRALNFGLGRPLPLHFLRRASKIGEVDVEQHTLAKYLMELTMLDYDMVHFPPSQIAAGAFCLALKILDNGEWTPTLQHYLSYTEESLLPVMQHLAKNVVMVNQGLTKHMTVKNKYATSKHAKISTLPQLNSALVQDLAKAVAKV

CDK2/cyclinE(h) = CDK2/cyclinE(h) (Homo sapiens, UniProt P24941); test: Kinase Profiling Assay; assay type: biochemical; conditions: 100 μM
CDK9/cyclin T1(h) = CDK9/cyclin T1(h) (Homo sapiens, UniProt P50750); test: Kinase Profiling Assay; assay type: biochemical; conditions: 100 μM
eEF-2K(h) = eEF-2K(h) (Homo sapiens, UniProt O00418); test: Kinase Profiling Assay; assay type: biochemical; conditions: 100 μM
EphA3(h) = molecular target: T2, EphA3(h) (Homo sapiens, UniProt P29320); test: Kinase Profiling Assay; assay type: biochemical; conditions: 100 μM
T2 sequence (P29320 21-983): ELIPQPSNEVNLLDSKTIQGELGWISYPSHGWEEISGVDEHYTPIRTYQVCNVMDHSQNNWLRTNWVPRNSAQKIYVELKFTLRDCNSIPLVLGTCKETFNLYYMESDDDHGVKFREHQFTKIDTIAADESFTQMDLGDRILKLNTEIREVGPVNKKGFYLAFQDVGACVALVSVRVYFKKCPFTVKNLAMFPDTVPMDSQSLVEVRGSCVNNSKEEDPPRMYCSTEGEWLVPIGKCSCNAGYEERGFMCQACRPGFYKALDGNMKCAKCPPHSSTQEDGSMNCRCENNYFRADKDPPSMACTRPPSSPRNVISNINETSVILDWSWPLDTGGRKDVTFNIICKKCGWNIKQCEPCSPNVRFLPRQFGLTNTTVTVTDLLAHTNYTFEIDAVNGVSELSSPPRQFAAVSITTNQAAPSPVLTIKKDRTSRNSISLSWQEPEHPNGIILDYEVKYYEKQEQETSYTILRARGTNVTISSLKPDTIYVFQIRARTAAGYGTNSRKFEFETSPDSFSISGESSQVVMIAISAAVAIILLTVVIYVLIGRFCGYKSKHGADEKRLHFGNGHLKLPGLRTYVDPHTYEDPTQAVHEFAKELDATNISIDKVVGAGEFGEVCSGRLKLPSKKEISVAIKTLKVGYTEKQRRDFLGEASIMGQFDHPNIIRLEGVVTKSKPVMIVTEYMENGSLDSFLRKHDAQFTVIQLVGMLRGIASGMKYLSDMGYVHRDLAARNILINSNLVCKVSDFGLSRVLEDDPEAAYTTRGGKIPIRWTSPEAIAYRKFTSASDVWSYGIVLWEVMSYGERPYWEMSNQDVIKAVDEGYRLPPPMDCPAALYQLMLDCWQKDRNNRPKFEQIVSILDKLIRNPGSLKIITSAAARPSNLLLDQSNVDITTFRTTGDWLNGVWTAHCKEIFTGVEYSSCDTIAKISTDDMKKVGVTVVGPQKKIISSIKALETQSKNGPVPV

GSK3α(h) = GSK3α(h) (Homo sapiens, UniProt P49840); test: Kinase Profiling Assay; assay type: biochemical; conditions: 100 μM
Sequence of GSK3α(h) (P49840 whole entry): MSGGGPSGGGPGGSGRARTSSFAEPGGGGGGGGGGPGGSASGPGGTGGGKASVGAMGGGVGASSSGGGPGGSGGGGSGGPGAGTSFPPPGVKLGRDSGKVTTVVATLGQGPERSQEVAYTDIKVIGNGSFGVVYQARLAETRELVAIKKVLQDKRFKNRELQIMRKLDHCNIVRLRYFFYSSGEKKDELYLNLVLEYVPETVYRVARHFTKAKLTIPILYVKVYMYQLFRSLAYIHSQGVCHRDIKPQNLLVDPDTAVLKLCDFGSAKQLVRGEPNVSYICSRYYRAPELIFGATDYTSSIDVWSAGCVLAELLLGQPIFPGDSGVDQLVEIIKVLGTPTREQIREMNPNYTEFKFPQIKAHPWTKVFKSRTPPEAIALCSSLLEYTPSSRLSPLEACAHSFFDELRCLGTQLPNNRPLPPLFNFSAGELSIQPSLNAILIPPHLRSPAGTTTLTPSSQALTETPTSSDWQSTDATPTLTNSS

HIPK3(h) = HIPK3(h) (Homo sapiens, UniProt Q9H422); test: Kinase Profiling Assay; assay type: biochemical; conditions: 100 μM
Sequence of HIPK3(h) (Q9H422 whole entry): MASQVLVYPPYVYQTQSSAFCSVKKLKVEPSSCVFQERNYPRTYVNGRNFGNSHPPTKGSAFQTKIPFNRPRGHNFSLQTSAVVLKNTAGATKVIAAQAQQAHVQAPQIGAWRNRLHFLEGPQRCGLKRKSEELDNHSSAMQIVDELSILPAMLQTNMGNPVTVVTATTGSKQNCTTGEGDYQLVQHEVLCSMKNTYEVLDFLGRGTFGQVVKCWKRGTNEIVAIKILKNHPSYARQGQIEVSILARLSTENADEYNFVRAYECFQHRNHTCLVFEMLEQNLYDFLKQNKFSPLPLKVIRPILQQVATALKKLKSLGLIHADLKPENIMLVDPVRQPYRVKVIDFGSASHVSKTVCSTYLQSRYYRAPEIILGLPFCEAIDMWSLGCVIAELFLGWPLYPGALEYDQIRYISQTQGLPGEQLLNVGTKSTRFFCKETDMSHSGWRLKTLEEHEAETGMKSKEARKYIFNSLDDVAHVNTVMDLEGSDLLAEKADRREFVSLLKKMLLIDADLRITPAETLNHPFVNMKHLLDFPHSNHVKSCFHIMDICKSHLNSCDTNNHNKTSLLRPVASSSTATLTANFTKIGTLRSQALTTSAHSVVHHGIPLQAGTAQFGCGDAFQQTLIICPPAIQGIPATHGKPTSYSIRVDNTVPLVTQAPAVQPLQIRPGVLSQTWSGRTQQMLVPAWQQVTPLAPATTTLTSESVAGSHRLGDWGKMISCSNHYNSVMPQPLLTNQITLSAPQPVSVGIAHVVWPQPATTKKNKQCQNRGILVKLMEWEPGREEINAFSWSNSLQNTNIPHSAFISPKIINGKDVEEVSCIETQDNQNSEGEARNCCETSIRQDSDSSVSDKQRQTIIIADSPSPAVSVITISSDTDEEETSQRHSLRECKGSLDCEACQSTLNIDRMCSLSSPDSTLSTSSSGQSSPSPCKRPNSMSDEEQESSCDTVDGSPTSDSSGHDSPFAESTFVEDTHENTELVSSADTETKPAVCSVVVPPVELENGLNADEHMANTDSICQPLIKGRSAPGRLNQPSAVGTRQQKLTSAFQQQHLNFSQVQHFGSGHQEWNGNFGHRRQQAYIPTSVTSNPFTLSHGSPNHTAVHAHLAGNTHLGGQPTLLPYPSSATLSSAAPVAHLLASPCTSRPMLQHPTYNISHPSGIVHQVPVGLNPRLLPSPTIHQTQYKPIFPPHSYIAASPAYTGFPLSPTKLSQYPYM

Lck(h) = Lck(h) (Homo sapiens, UniProt P06239); test: Kinase Profiling Assay; assay type: biochemical; conditions: 100 μM
Sequence of Lck(h) (P06239 whole entry): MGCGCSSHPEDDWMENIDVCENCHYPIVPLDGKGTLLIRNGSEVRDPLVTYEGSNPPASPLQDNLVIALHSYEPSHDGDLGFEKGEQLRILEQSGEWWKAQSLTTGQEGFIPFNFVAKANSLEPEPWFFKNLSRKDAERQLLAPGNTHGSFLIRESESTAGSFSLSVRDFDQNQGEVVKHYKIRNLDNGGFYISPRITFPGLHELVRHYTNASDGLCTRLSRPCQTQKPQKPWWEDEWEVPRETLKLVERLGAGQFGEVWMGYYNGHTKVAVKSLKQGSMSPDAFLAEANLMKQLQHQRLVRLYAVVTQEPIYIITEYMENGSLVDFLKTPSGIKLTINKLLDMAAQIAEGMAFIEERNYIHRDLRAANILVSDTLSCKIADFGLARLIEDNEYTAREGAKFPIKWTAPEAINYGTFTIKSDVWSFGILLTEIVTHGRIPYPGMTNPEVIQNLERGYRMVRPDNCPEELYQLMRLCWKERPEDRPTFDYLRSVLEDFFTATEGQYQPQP

MAPK2(h) = MAPK2(h) (Homo sapiens, UniProt P28482); test: Kinase Profiling Assay; assay type: biochemical; conditions: 100 μM
Sequence of MAPK2(h) (P28482 whole entry): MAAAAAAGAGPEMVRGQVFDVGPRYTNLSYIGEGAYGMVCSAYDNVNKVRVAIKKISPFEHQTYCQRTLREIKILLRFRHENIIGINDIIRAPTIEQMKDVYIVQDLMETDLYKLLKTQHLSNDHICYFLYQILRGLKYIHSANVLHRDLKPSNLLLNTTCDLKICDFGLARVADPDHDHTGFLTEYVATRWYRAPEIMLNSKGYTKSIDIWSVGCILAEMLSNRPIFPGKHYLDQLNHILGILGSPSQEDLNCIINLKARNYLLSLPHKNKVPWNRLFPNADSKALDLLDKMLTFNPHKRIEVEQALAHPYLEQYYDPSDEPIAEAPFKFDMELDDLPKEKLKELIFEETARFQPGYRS

MEK1(h) = MEK1(h) (Homo sapiens, UniProt Q02750); test: Kinase Profiling Assay; assay type: biochemical; conditions: 100 μM
PDGFRα(D842V)(h) = PDGFRα(D842V)(h) (Homo sapiens, UniProt P16234, D842V); test: Kinase Profiling Assay; assay type: biochemical; conditions: 100 μM
Sequence of PDGFRα(D842V)(h) (P16234 24-1089 D842V): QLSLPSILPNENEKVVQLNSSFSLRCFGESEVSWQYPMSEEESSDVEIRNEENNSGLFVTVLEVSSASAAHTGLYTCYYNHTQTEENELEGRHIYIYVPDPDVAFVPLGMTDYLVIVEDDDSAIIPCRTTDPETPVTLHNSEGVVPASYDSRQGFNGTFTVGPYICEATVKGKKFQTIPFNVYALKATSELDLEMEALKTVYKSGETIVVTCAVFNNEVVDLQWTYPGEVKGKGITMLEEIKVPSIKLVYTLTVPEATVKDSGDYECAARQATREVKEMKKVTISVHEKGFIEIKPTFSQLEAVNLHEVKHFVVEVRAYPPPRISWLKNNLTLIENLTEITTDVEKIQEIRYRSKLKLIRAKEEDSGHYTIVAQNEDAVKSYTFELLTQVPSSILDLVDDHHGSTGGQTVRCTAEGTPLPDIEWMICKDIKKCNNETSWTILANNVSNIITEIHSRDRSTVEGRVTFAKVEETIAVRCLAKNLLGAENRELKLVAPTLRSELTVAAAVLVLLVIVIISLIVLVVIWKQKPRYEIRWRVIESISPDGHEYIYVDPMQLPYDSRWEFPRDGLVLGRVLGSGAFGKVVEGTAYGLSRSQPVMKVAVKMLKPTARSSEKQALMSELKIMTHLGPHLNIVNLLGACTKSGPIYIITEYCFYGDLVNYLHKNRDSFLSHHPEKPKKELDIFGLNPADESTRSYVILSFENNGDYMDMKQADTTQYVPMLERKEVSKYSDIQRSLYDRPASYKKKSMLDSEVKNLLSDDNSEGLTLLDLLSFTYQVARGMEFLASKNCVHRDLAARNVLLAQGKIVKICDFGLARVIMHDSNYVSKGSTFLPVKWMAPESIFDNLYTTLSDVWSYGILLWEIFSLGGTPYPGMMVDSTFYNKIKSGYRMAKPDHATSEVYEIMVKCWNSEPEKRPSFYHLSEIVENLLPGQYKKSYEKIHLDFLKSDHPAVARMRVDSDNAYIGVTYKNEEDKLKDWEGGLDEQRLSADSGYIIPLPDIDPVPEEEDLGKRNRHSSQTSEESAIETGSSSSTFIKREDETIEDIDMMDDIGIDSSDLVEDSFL

SAPK2a(h) = SAPK2a(h) (Homo sapiens, UniProt Q16539); test: Kinase Profiling Assay; assay type: biochemical; conditions: 100 μM
Sequence of SAPK2a(h) (Q16539 whole entry): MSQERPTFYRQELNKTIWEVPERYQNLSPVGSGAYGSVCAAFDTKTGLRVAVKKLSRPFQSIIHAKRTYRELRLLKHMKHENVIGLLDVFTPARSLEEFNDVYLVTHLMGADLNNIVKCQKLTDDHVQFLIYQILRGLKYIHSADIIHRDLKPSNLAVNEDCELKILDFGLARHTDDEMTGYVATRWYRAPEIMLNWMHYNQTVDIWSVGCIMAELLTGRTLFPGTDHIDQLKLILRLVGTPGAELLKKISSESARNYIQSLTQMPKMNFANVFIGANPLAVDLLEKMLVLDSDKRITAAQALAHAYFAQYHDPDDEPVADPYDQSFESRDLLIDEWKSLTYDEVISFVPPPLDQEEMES

SGK2(h) = molecular target: T3, SGK2(h) (Homo sapiens, UniProt Q9HBY8); test: Kinase Profiling Assay; assay type: biochemical; conditions: 100 μM
T3 sequence (Q9HBY8 1-367): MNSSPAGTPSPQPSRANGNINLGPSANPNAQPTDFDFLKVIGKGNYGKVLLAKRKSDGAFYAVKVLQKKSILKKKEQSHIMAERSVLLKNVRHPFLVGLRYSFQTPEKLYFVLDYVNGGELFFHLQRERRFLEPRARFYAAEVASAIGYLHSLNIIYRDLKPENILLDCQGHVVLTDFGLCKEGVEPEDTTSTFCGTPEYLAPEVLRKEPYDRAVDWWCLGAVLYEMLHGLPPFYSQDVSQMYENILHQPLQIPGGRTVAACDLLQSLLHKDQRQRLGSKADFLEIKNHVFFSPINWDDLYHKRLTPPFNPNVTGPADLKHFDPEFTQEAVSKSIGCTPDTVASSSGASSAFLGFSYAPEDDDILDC

Tie2(R849W)(h) = Tie2(R849W)(h) (Homo sapiens, UniProt Q02763, R849W); test: Kinase Profiling Assay; assay type: biochemical; conditions: 100 μM
[1] = Cytotoxicity assay (CytoTox-ONE); conditions: human, HCAVSMCs
Method: 200 μL of cell suspension (at 10,000 cells/well) were seeded onto 96-well plates to yield an approximate 70% confluence per well. Cells were allowed to adhere to the plate overnight. […] Treatments were subsequently removed and the cells were cultured in fresh complete growth medium for 24 hours. Cells were then washed 2× with PBS +/+ and cell viability was then determined by a CytoTox-ONE Homogenous Membrane Integrity assay (Promega) according to the manufacturer's protocol. Briefly, 100 μL of Ambion KDalert Lysis Buffer was added to each well, and then 100 μL of freshly prepared CytoTox-ONE reagent was added to each well. After 10 minutes of incubation, 50 μL of stop solution was added, and the fluorescence of each well (kλex=560 nm, λem, =590 nm) was determined with a TECAN Infinite M1000 Pro plate reader.

HCAVSMCs = test: Flow cytometric uptake and retention of MK2i-NPs and p-HSP20-NPs (30 min treatment); conditions: 3 days after treatment removal
Method: For MK2i-NP and HSP20-NP studies, An amine-reactive Alexa-488 succinimidyl ester (Life Technologies) was dissolved in DMSO and mixed at a 1 to 3 molar ratio with the MK2i or p-HSP20 peptide in 100 mM sodium bicarbonate buffer (pH=8.3) and allowed to react for 3 hours. Unreacted fluorophore and organic solvent were removed using a PD-10 miditrap G-10 desalting column, and the fluorescently labeled MK2i and p-HSP20 peptides were lyophilized. […] Similarly, PPAA was mixed with fluorescently labeled p-HSP20 at a CR of [NH3^+]/[COO^−]=1:3 and syringe filtered through a 0.45 μm PTFE filter to form fluorescent HSP20-NPs. HCAVSMCs were grown to 80-90% confluence, harvested, and seeded at 20,000 cells/well in a 24 well plate and allowed to adhere overnight. […] Following treatment, cells were washed 2× in PBS, and either immediately harvested or incubated in complete growth media for an additional 72 hours. Cells were harvested with 0.05% trypsin-EDTA, centrifuged, and suspended in 0.1% Trypan blue in PBS (−/−) for analysis on a FACSCalibur flow cytometer (Becton Dickinson) with BD CellQuest™ Pro software (V 5.2). Data was exported and analyzed with FlowJo software (V 7.6.4). All samples were run in triplicate.

HRRIKAWLKKIKALARQLGVAA (Mammalian) [MMI-0500]
% activity (Ab1(H396P)(h)): 51% | % activity (Ab1(M351T)(h)): 61% | % activity (Aurora-A(h)): 110% | % activity (CDK1/cyclinB(h)): 57% | % activity (CDK2/cyclinE(h)): 19% | % activity (CDK9/cyclin T1(h)): 6% | % activity (eEF-2K(h)): 43% | % activity (EphA3(h)): 33% | % activity (GSK3α(h)): 175% | % activity (HIPK3(h)): 85% | % activity (Lck(h)): 359% | % activity (MAPK2(h)): 60% | % activity (MEK1(h)): 21% | % activity (PDGFRα(D842V)(h)): 170% | % activity (SAPK2a(h)): 52% | % activity (SGK2(h)): -1%

YARAAARQARAKALNRQLGVA (Mammalian) [MMI-0200]
% activity (Tie2(R849W)(h)): 89%

H-YARAAARQARAKALARQLGVAA-OH [MMI-0100]
viability at 2 h, 500 µM [1]: 76% | intracellular peptide retention (% of initial uptake remaining) (HCAVSMCs): 54%
